Patent US20190218553, “VON WILLEBRAND FACTOR (VWF)-TARGETING AGENTS AND METHODS OF USING THE SAME” (DUKE UNIVERSITY, published 2019)

Biological target: von Willebrand factor (VWF) (Homo sapiens, UniProt P04275 P04275:764-2813)
Experiment: filter; Bmax 74%; 2 mM CaCl2, 37 C
Details: tags: factor VIII free human purified VWF, Haematologic Technologies Inc; label: 5'-32P
Protocol: Affinity constants (Kd values) were determined using double-filter nitrocellulose filter binding assays (Rusconi et al, Thromb. Haemost. $4:841-848 (2000)). All binding studies were performed in binding buffer F (20 mM HEPES, pH 7.4, 150 mM NaCl, 2 mM CaCl₂, and 0.01% BSA) at 37° C. Human purified VWF (factor VIII free) was purchased from Haematologic Technologies Inc. (Essex Junction, Vt.) and used in the double-filter nitrocellulose filter binding assay to determine the Kd of the aptamers. Briefly, RNA were end-labeled at the 5′ end with T4 polynucleotide kinase (New England Biolabs, Beverly, Mass.) and [γ³²P] ATP (Amersham Pharmacia Biotech, Piscataway, N.J.) (Fitzwater and Polisky, Methods Enzymol. 267:275-301 (1996)). End-labeled RNA was diluted in binding buffer F, heat denatured at 65° C. for 5 minutes, and subsequently equilibrated at 37° C. Direct binding was performed by incubating trace ³²P-RNA with varying concentrations of VWF protein in binding buffer F at 37° C. for 5 min. The fraction of the nucleic acid-protein complex which bound to the nitrocellulose membrane was quantified with a phosphorimager (Molecular Dynamics, Sunnyvale, Calif.). Non-specific binding of the radiolabeled nucleic acid was subtracted out of the binding such that only specific binding remained (Wong and Lohman, Proc. Natl. Acad. Sci. USA 90:5428-5432 (1993)).

ACGAACUGCCCUCGAUCGACGCACAGACGUACACG (ssRNA, 2'-F C9,C10,C11,C20,G21,C22; rest 2'-OMe; 3' idT) [T84 vrt7]
Kd: 182 nM
